Laboratory results: patent US12247238B2, “Mogroside biocatalysis methods and products” (The Coca-Cola Company, priority 2019, dated 2025)

Columns and labels:
Assay type in all cases: biochemical
[1] = RRK loop library variant second pass evaluation, Siamenoside I substrate; conditions: Siamenoside I as substrate
Method: (§1) Single transformant colonies from 3.2.2 were inoculated into 2mL BMGY in 48 well-growth blocks and grown overnight at 30° C., 1000 rpm in a benchtop incubator before dilution of cell culture from each well into 2 mL BMM medium an equivalent well in a fresh growth block, to an OD600 nm of 1.0, and growing the induction growth blocks at 30° C., 1000 rpm in a benchtop incubator for 72 hours. The cells were then harvested (5000 g, 10 minutes) and the supernatant from each well concentrated using a 30 kDa cut-off Amicon Ultra 0.5 mL concentrator column (10 000 g, 5 minutes). Enzymatic assays were setup in fresh growth blocks to a total volume of 500 μL, comprising with 50 mM sodium citrate buffer pH 5.6, 10 mM magnesium chloride, 10 mM mogroside V and 50 μL concentrated supernatant (˜35 μg mL−1 protein). Assays were incubated without shaking at 37° C. for 72 hours. 190 μL of reaction was combined with 10 μL 10 mM internal standard (N-Boc-) and 5 μL analyzed by HPLC.
(§2) Mogroside compounds HPLC separation and quantification was conducted using a Synergi Hydro-RP column (250 mm×4.6 mm or 150 mm×4.6 mm) with an initial flow rate of 1 mL min−1 and a water: acetonitrile gradient as per below, similar to that described by Zhou et al. (WO 2014/150127). Compounds were detected at 210 nm using diode array detector (Agilent Technologies, USA), and calibration curves established using standard curves from 0.1 to 10 mM. 150 mm column retention times in minutes: mog V 9.5, sia 1 10.6, mog IVa 10.5, mog IV 11.3, mog III 12.6, mogl I 13.2. 250 mm column retention times: mog V 12.3, sia 1 13.2, mog IVa 13.5, mog IV 14.1, mog III 15.3, mog II 16.2.
(§3) 48 variants were selected based on Siamenoside I yields of >70% by peak area for a second pass evaluation. The cell lines were regrown and assayed with both mogroside V and Siamenoside I as substrates, independently.

[2] = RRK loop library variant screening, mogroside V substrate; conditions: second pass evaluation, 10 mM mogroside V, pH 5.6, 37° C., 72 hours
Method: as §1, §2
Therefore, variants showing improved function were chosen if they surpassed a yield value >70% by peak area during this first pass evolution.
as §3

[3] = Example 8 standard mogroside biocatalytic assay, Mog V as substrate; conditions: 37° C., pH 5.6
Method: Standard mogroside biocatalytic assays were performed at 37° C. in 500 μL volume 50 mM sodium citrate buffer pH 5.6, 10 mM magnesium chloride, 10 mM substrate (typically mogroside V or Siamenoside I) and 50 μg mL−1 enzyme, and incubated for 24-96 hours. Mogroside glucosidation activity was detected by direct HPLC detection and quantification of mogroside V substrate and mogroside products from filtered reaction supernatant, and quantified by comparison with standard curves based on peak area (see Analytical Methods).
as §2, with “Analytical Method: Mogroside” for “Mogroside”

Row | Molecule | Siamenoside I Substrate Evaluation % Peak Area Siamenoside I Left After 72 hr [1] | % Peak Area Siamenoside I [2] | Reaction Progress [2] | Reaction progress (% conversion) [3] | % Siamenoside I ([3]; 72 hr)
1 | S2 RRK 16: RRK loop library variant, positions 204/205/208: NGR (protein, UniProt Q2UCU3 19-1005, looked up, variant G204N C205G V208R) Beta-galactosidase A: ASIKHRLNGFTILEHPDPAKRDLLQDIVTWDDKSLFINGERIMLFSGEVHPFRLPVPSLWLDIFHKIRALGFNCVSFYIDWALLEGKPGDYRAEGIFALEPFFDAAKEAGIYLIARPGSYINAEVSGGGFPGWLQRVNGTLRSSDEPFLKATDNYIANAAAAVAKAQITNGGPVILYQPENEYSGNGCGRKYPDADYMQYVMDQARKADIVVPFISNDASPSGHNAPGSGTGAVDIYGHDSYPLGFDCANPSVWPEGKLPDNFRTLHLEQSPSTPYSLLEFQAGAFDPWGGPGFEKCYALVNHEFSRVFYRNDLSFGVSTFNLYMTFGGTNWGNLGHPGGYTSYDYGSPITETRNVTREKYSDIKLLANFVKASPSYLTATPRNLTTGVYTDTSDLAVTPLIGDSPGSFFVVRHTDYSSQESTSYKLKLPTSAGNLTIPQLEGTLSLNGRDSKIHVVDYNVSGTNIIYSTAEVFTWKKFDGNKVLVLYGGPKEHHELAIASKSNVTIIEGSDSGIVSTRKGSSVIIGWDVSSTRRIVQVGDLRVFLLDRNSAYNYWVPELPTEGTSPGFSTSKTTASSIIVKAGYLLRGAHLDGADLHLTADFNATTPIEVIGAPTGAKNLFVNGEKASHTVDKNGIWSSEVKYAAPEIKLPGLKDLDWKYLDTLPEIKSSYDDSAWVSADLPKTKNTHRPLDTPTSLYSSDYGFHTGYLIYRGHFVANGKESEFFIRTQGGSAFGSSVWLNETYLGSWTGADYAMDGNSTYKLSQLESGKNYVITVVIDNLGLDENWTVGEETMKNPRGILSYKLSGQDASAITWKLTGNLGGEDYQDKVRGPLNEGGLYAERQGFHQPQPPSESWESGSPLEGLSKPGIGFYTAQFDLDLPKGWDVPLYFNFGNNTQAARAQLYVNGYQYGKFTGNVGPQTSFPVPEGILNYRGTNYVALSLWALESDGAKLGSFELSYTTPVLTGYGNVESPEQPKYEQRKGAY | 72 % Peak Area | 72 % Peak Area | 87 |  | 
2 | S3 RRK 5: RRK loop library variant, positions 204/205/208: ESG (protein, UniProt Q2UCU3 19-1005, looked up, variant G204E C205S V208G) Beta-galactosidase A: ASIKHRLNGFTILEHPDPAKRDLLQDIVTWDDKSLFINGERIMLFSGEVHPFRLPVPSLWLDIFHKIRALGFNCVSFYIDWALLEGKPGDYRAEGIFALEPFFDAAKEAGIYLIARPGSYINAEVSGGGFPGWLQRVNGTLRSSDEPFLKATDNYIANAAAAVAKAQITNGGPVILYQPENEYSGESCGGKYPDADYMQYVMDQARKADIVVPFISNDASPSGHNAPGSGTGAVDIYGHDSYPLGFDCANPSVWPEGKLPDNFRTLHLEQSPSTPYSLLEFQAGAFDPWGGPGFEKCYALVNHEFSRVFYRNDLSFGVSTFNLYMTFGGTNWGNLGHPGGYTSYDYGSPITETRNVTREKYSDIKLLANFVKASPSYLTATPRNLTTGVYTDTSDLAVTPLIGDSPGSFFVVRHTDYSSQESTSYKLKLPTSAGNLTIPQLEGTLSLNGRDSKIHVVDYNVSGTNIIYSTAEVFTWKKFDGNKVLVLYGGPKEHHELAIASKSNVTIIEGSDSGIVSTRKGSSVIIGWDVSSTRRIVQVGDLRVFLLDRNSAYNYWVPELPTEGTSPGFSTSKTTASSIIVKAGYLLRGAHLDGADLHLTADFNATTPIEVIGAPTGAKNLFVNGEKASHTVDKNGIWSSEVKYAAPEIKLPGLKDLDWKYLDTLPEIKSSYDDSAWVSADLPKTKNTHRPLDTPTSLYSSDYGFHTGYLIYRGHFVANGKESEFFIRTQGGSAFGSSVWLNETYLGSWTGADYAMDGNSTYKLSQLESGKNYVITVVIDNLGLDENWTVGEETMKNPRGILSYKLSGQDASAITWKLTGNLGGEDYQDKVRGPLNEGGLYAERQGFHQPQPPSESWESGSPLEGLSKPGIGFYTAQFDLDLPKGWDVPLYFNFGNNTQAARAQLYVNGYQYGKFTGNVGPQTSFPVPEGILNYRGTNYVALSLWALESDGAKLGSFELSYTTPVLTGYGNVESPEQPKYEQRKGAY | 69 % Peak Area | 73 % Peak Area | 87 |  | 
3 | S3 RRK 7: RRK loop library variant, positions 204/205/208: DSE (protein, UniProt Q2UCU3 19-1005, looked up, variant G204D C205S V208E) Beta-galactosidase A: ASIKHRLNGFTILEHPDPAKRDLLQDIVTWDDKSLFINGERIMLFSGEVHPFRLPVPSLWLDIFHKIRALGFNCVSFYIDWALLEGKPGDYRAEGIFALEPFFDAAKEAGIYLIARPGSYINAEVSGGGFPGWLQRVNGTLRSSDEPFLKATDNYIANAAAAVAKAQITNGGPVILYQPENEYSGDSCGEKYPDADYMQYVMDQARKADIVVPFISNDASPSGHNAPGSGTGAVDIYGHDSYPLGFDCANPSVWPEGKLPDNFRTLHLEQSPSTPYSLLEFQAGAFDPWGGPGFEKCYALVNHEFSRVFYRNDLSFGVSTFNLYMTFGGTNWGNLGHPGGYTSYDYGSPITETRNVTREKYSDIKLLANFVKASPSYLTATPRNLTTGVYTDTSDLAVTPLIGDSPGSFFVVRHTDYSSQESTSYKLKLPTSAGNLTIPQLEGTLSLNGRDSKIHVVDYNVSGTNIIYSTAEVFTWKKFDGNKVLVLYGGPKEHHELAIASKSNVTIIEGSDSGIVSTRKGSSVIIGWDVSSTRRIVQVGDLRVFLLDRNSAYNYWVPELPTEGTSPGFSTSKTTASSIIVKAGYLLRGAHLDGADLHLTADFNATTPIEVIGAPTGAKNLFVNGEKASHTVDKNGIWSSEVKYAAPEIKLPGLKDLDWKYLDTLPEIKSSYDDSAWVSADLPKTKNTHRPLDTPTSLYSSDYGFHTGYLIYRGHFVANGKESEFFIRTQGGSAFGSSVWLNETYLGSWTGADYAMDGNSTYKLSQLESGKNYVITVVIDNLGLDENWTVGEETMKNPRGILSYKLSGQDASAITWKLTGNLGGEDYQDKVRGPLNEGGLYAERQGFHQPQPPSESWESGSPLEGLSKPGIGFYTAQFDLDLPKGWDVPLYFNFGNNTQAARAQLYVNGYQYGKFTGNVGPQTSFPVPEGILNYRGTNYVALSLWALESDGAKLGSFELSYTTPVLTGYGNVESPEQPKYEQRKGAY | 73 % Peak Area | 72 % Peak Area | 85 |  | 
4 | E142A RRK77: β-galactosidase variant, RRK substitutions ENR with E142A (protein, UniProt Q2UCU3 19-1005, looked up, variant E142A G204E C205N V208R) Beta-galactosidase A: ASIKHRLNGFTILEHPDPAKRDLLQDIVTWDDKSLFINGERIMLFSGEVHPFRLPVPSLWLDIFHKIRALGFNCVSFYIDWALLEGKPGDYRAEGIFALEPFFDAAKEAGIYLIARPGSYINAAVSGGGFPGWLQRVNGTLRSSDEPFLKATDNYIANAAAAVAKAQITNGGPVILYQPENEYSGENCGRKYPDADYMQYVMDQARKADIVVPFISNDASPSGHNAPGSGTGAVDIYGHDSYPLGFDCANPSVWPEGKLPDNFRTLHLEQSPSTPYSLLEFQAGAFDPWGGPGFEKCYALVNHEFSRVFYRNDLSFGVSTFNLYMTFGGTNWGNLGHPGGYTSYDYGSPITETRNVTREKYSDIKLLANFVKASPSYLTATPRNLTTGVYTDTSDLAVTPLIGDSPGSFFVVRHTDYSSQESTSYKLKLPTSAGNLTIPQLEGTLSLNGRDSKIHVVDYNVSGTNIIYSTAEVFTWKKFDGNKVLVLYGGPKEHHELAIASKSNVTIIEGSDSGIVSTRKGSSVIIGWDVSSTRRIVQVGDLRVFLLDRNSAYNYWVPELPTEGTSPGFSTSKTTASSIIVKAGYLLRGAHLDGADLHLTADFNATTPIEVIGAPTGAKNLFVNGEKASHTVDKNGIWSSEVKYAAPEIKLPGLKDLDWKYLDTLPEIKSSYDDSAWVSADLPKTKNTHRPLDTPTSLYSSDYGFHTGYLIYRGHFVANGKESEFFIRTQGGSAFGSSVWLNETYLGSWTGADYAMDGNSTYKLSQLESGKNYVITVVIDNLGLDENWTVGEETMKNPRGILSYKLSGQDASAITWKLTGNLGGEDYQDKVRGPLNEGGLYAERQGFHQPQPPSESWESGSPLEGLSKPGIGFYTAQFDLDLPKGWDVPLYFNFGNNTQAARAQLYVNGYQYGKFTGNVGPQTSFPVPEGILNYRGTNYVALSLWALESDGAKLGSFELSYTTPVLTGYGNVESPEQPKYEQRKGAY |  |  |  | 89% | 76 ± 3.1%
